These results are taken from PMC4358367, “Structural basis of diverse membrane target recognitions by ankyrins” (eLife, 2014).

Test [1] deals with AnkG_repeats (24 ANK repeats of rat 190 kDa ankyrin-G, residues 38–855) (rat) (UniProt O70511). Description: ITC; VP-ITC at 25°C; 50 mM Tris pH 7.5, 100 mM NaCl, 1 mM EDTA, 1 mM DTT; binding partner (AS, Nav1.2 ABD proteins, neurofascin ABD; 200–300 µM) in the syringe, ANK repeats (20–30 µM) in the cell; one-site binding model. (In general: In ITC the heat of successive injections is recorded.)

For test [2], the target named is T1, AnkR_repeats (24 ANK repeats of ankyrin-R, residues 42–853) (mouse, UniProt Q02357-6 42-853).
T1 chain: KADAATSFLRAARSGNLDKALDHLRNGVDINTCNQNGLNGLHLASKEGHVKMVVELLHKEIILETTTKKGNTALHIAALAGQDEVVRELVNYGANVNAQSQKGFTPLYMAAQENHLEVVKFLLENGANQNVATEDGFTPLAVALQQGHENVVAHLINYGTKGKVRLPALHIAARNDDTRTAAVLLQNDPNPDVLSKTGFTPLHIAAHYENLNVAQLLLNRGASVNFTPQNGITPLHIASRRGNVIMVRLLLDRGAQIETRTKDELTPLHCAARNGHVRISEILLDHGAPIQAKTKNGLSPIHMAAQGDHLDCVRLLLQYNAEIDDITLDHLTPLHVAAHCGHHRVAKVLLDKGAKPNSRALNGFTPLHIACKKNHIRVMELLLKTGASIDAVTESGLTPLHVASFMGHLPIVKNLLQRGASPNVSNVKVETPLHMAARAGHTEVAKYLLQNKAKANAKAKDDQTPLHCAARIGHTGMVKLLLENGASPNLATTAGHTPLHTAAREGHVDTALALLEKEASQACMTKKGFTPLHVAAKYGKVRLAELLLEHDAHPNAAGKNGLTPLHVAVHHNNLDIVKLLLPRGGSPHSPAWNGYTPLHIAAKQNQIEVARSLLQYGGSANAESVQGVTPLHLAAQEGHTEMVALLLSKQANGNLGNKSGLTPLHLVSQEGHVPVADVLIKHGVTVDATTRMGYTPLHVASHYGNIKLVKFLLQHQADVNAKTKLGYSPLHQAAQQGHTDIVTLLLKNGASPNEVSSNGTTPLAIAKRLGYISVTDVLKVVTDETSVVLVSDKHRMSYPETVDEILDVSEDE
Description: ITC.

Test [3] has as its target T2, FITC-labeled AnkR_AS peptide.
T2 chain: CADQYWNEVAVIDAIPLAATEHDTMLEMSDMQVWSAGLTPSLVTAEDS
Description: fluorescence polarisation. To be noted: chain shown with the change. In general terms: Fluorescence polarisation rises when a labelled molecule tumbles more slowly, as on binding a larger partner.

In test [4] the target is FITC-labeled AnkR_AS peptide (mouse). Description: fluorescence polarisation; FITC-labeled peptide (~1 µM) titrated with AnkB_repeats WT or mutants; 25°C; 50 mM Tris pH 8.0, 100 mM NaCl, 1 mM DTT, 1 mM EDTA; one-site binding model.
Test [5] has as its target T3, Nav1.2_ABD (ankyrin binding domain of Nav1.2, residues 1035–1129).
T3 chain: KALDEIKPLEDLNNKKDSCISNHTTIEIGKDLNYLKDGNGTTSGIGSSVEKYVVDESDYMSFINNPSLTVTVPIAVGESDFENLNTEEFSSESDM
Description: ITC. The conditions noted are these: chain shown with the change.

Changes are numbered by the printed parent chain. Numbers in names are those of the source.

What is called Kd is the equilibrium constant for the complex coming apart. The low end stands for tighter binding, the high end for weaker binding.

Regarding “E1112Q-Nav1.2 (ABD with E1112Q) (domain or fragment)”, the fold weaker binding than wild-type Nav1.2 in test [1] came to 30 fold.

“Nav1.2_ABD-C (27-residue motif of loop 2, residues 1103–1129) (domain or fragment)” had a fold weaker affinity than the entire ABD in test [1] of 15 fold.

For the molecule “E1112A-Nav1.2 (ABD with E1112A) (domain or fragment)”, the fold weaker binding than wild-type Nav1.2 in test [1] came out at 30 fold.

For the molecule “Nfasc_ABD (28-residue fragment of the neurofascin cytoplasmic tail, residues 1187–1214) (domain or fragment)”, in test [1], the dissociation constant (Kd) amounted to 0.21 µM.

On to “Nav1.2_ABD (ankyrin binding domain of Nav1.2, residues 1035–1129) (domain or fragment)”, for which the Kd in test [1] amounted to 0.17 µM.

B1: AnkR 1529-1825 (protein)
chain: RQSRNLKPERRHGDREYSLSPSQVNGYSSLQDELLSPASLQYALPSPLCADQYWNEVTVIDAIPLAATEHDTMLEMSDMQVWSAGLTPSLVTAEDSSLECSKAEDSDAIPEWKLEGAHSEDTQGPELGSQDLVEDDTVDSDATNGLADLLGQEEGQRSEKKRQEVSGTEQDTETEVSLVSGQQRVHARITDSPSVRQVLDRSQARTLDWDKQGSTAVHPQEATQSSWQEEVTQGPHSFQRRITTIQGPEPGALQEYEQVLVSTREHVQRGPPETGSPKAGKEPSLWAPESAFSQEVQ
In test [2], B1 displayed a Kd of 1 µM.

B2: AnkR 1589-1624 (peptide)
chain: DAIPLAATEHDTMLEMSDMQVWSAGLTPSLVTAEDS
For the molecule B2, the Kd in test [2] was 2.2 µM.

B3: AnkR 1529-1672 (protein)
chain: RQSRNLKPERRHGDREYSLSPSQVNGYSSLQDELLSPASLQYALPSPLCADQYWNEVTVIDAIPLAATEHDTMLEMSDMQVWSAGLTPSLVTAEDSSLECSKAEDSDAIPEWKLEGAHSEDTQGPELGSQDLVEDDTVDSDATN
B3: the Kd in test [2] turned out to be 1.1 µM.

B4: AnkR 1577-1612 (peptide)
chain: CADQYWNEVTVIDAIPLAATEHDTMLEMSDMQVWSA
Regarding B4, the Kd in test [2] came to 2 µM.

B5: AnkR 1529-1600 (protein)
chain: RQSRNLKPERRHGDREYSLSPSQVNGYSSLQDELLSPASLQYALPSPLCADQYWNEVTVIDAIPLAATEHDT
In turn, B5 had a Kd in test [2] of more than 50 µM.

B6: AnkR 1589-1612 (peptide)
chain: DAIPLAATEHDTMLEMSDMQVWSA
In the case of B6, in test [2], the Kd turned out to be 23 µM.

B7: AnkB_repeats (24 ANK repeats of human 220 kDa ankyrin-B, residues 28–873), Q01484 L366Q; F399Q; L432Q (protein)
chain: KSDSNASFLRAARAGNLDKVVEYLKGGIDINTCNQNGLNALHLAAKEGHVGLVQELLGRGSSVDSATKKGNTALHIASLAGQAEVVKVLVKEGANINAQSQNGFTPLYMAAQENHIDVVKYLLENGANQSTATEDGFTPLAVALQQGHNQAVAILLENDTKGKVRLPALHIAARKDDTKSAALLLQNDHNADVQSKMMVNRTTESGFTPLHIAAHYGNVNVATLLLNRGAAVDFTARNGITPLHVASKRGNTNMVKLLLDRGGQIDAKTRDGLTPLHCAARSGHDQVVELLLERGAPLLARTKNGLSPLHMAAQGDHVECVKHLLQHKAPVDDVTLDYQTALHVAAHCGHYRVTKLLLDKRANPNARALNGQTPLHIACKKNRIKVMELLVKYGASIQAITESGQTPIHVAAFMGHLNIVLLLLQNGASPDVTNIRGETALHMAARAGQVEVVRCLLRNGALVDARAREEQTPLHIASRLGKTEIVQLLLQHMAHPDAATTNGYTPLHISAREGQVDVASVLLEAGAAHSLATKKGFTPLHVAAKYGSLDVAKLLLQRRAAADSAGKNGLTPLHVAAHYDNQKVALLLLEKGASPHATAKNGYTPLHIAAKKNQMQIASTLLNYGAETNIVTKQGVTPLHLASQEGHTDMVTLLLDKGANIHMSTKSGLTSLHLAAQEDKVNVADILTKHGADQDAHTKLGYTPLIVACHYGNVKMVNFLLKQGANVNAKTKNGYTPLHQAAQQGHTHIINVLLQHGAKPNATTANGNTALAIAKRLGYISVVDTLKVVTEEVTTTTTTITEKHKLNVPETMTEVLDVSDEEGDDTMTGDGGEYLRPEDLKELGDD
As to B7, the Kd in test [3] turned out to be 0.41 µM.

B8: AnkB_repeats site 1 mutant 'FF' (Phe131 and Phe164 to Gln) (domain or fragment)
chain: B7 chain with F104Q, F137Q, Q339L, Q372F, Q405L
In test [4], B8 came in with a fold decrease in AnkR AS binding against WT ANK repeats of 20 fold.

B9: AnkB_repeats site 2 mutant 'IL' (Ile267 and Leu300 to Gln) (domain or fragment)
chain: B7 chain with I240Q, L273Q, Q339L, Q372F, Q405L
Regarding B9, in test [4], the fold decrease in AnkR AS binding against WT ANK repeats turned out to be 20 fold.

B10: AnkB_repeats (24 ANK repeats of human 220 kDa ankyrin-B, residues 28–873), Q01484 F131Q; F164Q (protein)
chain: B7 chain with F104Q, F137Q, Q339L, Q372F, Q405L
B10: the Kd in test [3] worked out at 2.7 µM.

B11: AnkB_repeats site 3 mutant 'LFL' (Leu366, Phe399 and Leu432 to Gln) (domain or fragment)
chain: B7 chain
For the molecule B11, the fold decrease in AnkR AS binding against WT ANK repeats in test [4] came out at 3 fold.

B12: AnkB_repeats (24 ANK repeats of human 220 kDa ankyrin-B, residues 28–873) (domain or fragment)
chain: B7 chain with Q339L, Q372F, Q405L
In the case of B12, in test [4], the Kd was found to be 0.14 µM.

B13: AnkB_repeats (24 ANK repeats of human 220 kDa ankyrin-B, residues 28–873), Q01484 I267Q; L300Q (protein)
chain: B7 chain with I240Q, L273Q, Q339L, Q372F, Q405L
Molecule B13 gave a Kd in test [3] of 3.1 µM.

B14: AnkR 1601-1672 (protein)
chain: MLEMSDMQVWSAGLTPSLVTAEDSSLECSKAEDSDAIPEWKLEGAHSEDTQGPELGSQDLVEDDTVDSDATN
As for B14, the Kd in test [2] was more than 50 µM.

B15: AnkG_repeats (24 ANK repeats of rat 190 kDa ankyrin-G, residues 38–855), O70511 T94A; N98E (protein)
chain: KSDANASYLRAARAGHLEKALDYIKNGVDVNICNQNGLNALHLASKEGHVEVVSELLQREANVDAAAKKGETALHIASLAGQAEVVKVLVTNGANVNAQSQNGFTPLYMAAQENHLEVVRFLLDNGASQSLATEDGFTPLAVALQQGHDQVVSLLLENDTKGKVRLPALHIAARKDDTKAAALLLQNDTNADIESKMVVNRATESGFTPLHIAAHYGNINVATLLLNRAAAVDFTARNDITPLHVASKRGNANMVKLLLDRGAKIDAKTRDGLTPLHCGARSGHEQVVEMLLDRAAPILSKTKNGLSPLHMATQGDHLNCVQLLLQHNVPVDDVTNDYLTALHVAAHCGHYKVAKVLLDKKANPNAKALNGFTPLHIACKKNRIRVMELLLKHGASIQAVTESGLTPIHVAAFMGHVNIVSQLMHHGASPNTTNVRGETALHMAARSGQAEVVRYLVQDGAQVEAKAKDDQTPLHISARLGKADIVQQLLQQGASPNAATTSGYTPLHLSAREGHEDVAAFLLDHGASLSITTKKGFTPLHVAAKYGKLEVASLLLQKSASPDAAGKSGLTPLHVAAHYDNQKVALLLLDQGASPHAAAKNGYTPLHIAAKKNQMDIATSLLEYGADANAVTRQGIASVHLAAQEGHVDMVSLLLSRNANVNLSNKSGLTPLHLAAQEDRVNVAEVLVNQGAHVDAQTKMGYTPLHVGCHYGNIKIVNFLLQHSAKVNAKTKNGYTPLHQAAQQGHTHIINVLLQNNASPNELTVNGNTALAIARRLGYISVVDTLKVVTEEIMTTTTITEKHKMNVPETMNEVLDMS
Molecule B15 showed a Kd in test [5] of 2.6 µM.
